Substitutions are numbered along the chain they refer to.
T1: canine IL-31 protein (Canine_IL31) (canine)
T1 chain: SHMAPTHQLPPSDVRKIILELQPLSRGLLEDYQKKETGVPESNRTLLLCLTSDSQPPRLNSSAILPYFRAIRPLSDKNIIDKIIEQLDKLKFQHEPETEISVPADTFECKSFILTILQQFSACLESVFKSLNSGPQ

T2: canine IL-31 protein (Canine_IL31)
T2 chain: T1 chain

B1: mouse anti IL-31 antibody 15H05 (antibody, mouse IgG1, kappa)
heavy: QVQLQQSAAELARPGASVKMSCKTSGYTFTSYTIHWIKQRPGQGLEWIGNINPTSGYTENNQRFKDKTTLTVDRSSNTAYLQLHSLTSEDSAVYFCARWGFKYDGEWSFDVWGAGTTVTVSSKTTPPSVYPLAPGSAAQTNSMVTLGCLVKGYFPEPVTVTWNSGSLSSGVHTFPAVLESDLYTLSSSVTVPSSPRPSETVTCNVAHPASSTKVDKKIVPRDCGCKPCICTVPEVSSVFIFPPKPKDVLTITLTPKVTCVVVDISKDDPEVQFSWFVDDVEVHTAQTQPREEQFNSTFRSVSELPIMHQDWLNGKEFKCRVNSAAFPAPIEKTISKTKGRPKAPQVYTIPPPKEQMAKDKVSLTCMITDFFPEDITVEWQWNGQPAENYKNTQPIMNTNGSYFVYSKLNVQKSNWEAGNTFTCSVLHEGLHNHHTEKSLSHSPGK
light: DIQMNQSPSSLSASLGDTITVTCRASQGISIWLSWYQQKPGNIPKVLINKASNLHIGVPPRFSGSGSGTHFTLTITSLQPEDIATYYCLQSQTYPLTFGGGTKLEINADAAPTVSIFPPSSEQLTSGGASVVCFLNNFYPKDINVKWKIDGSERQNGVLNSWTDQDSKDSTYSMSSTLTLTKDEYERHNSYTCEATHKTSTSPIVKSFNRNEC
notes: Mouse hybridoma antibody, mouse IgG1 heavy and mouse kappa light constant regions; also called Mu-15H05; MU-15H05
B2: ZTS-361 (antibody)
heavy: QVLLVQSGAEVRTPGASVKIFCKASGYSFTSYTIHWLRQAPAQGLEWMGNINPTSGYTENNQRFKDRLTLTADTSTNTAYMELSSLRSADTAMYYCARWGFKYDGEWSFDVWGAGTTVTVSSASTTAPSVFPLAPSCGTTSGATVALACLVLGYFPEPVTVSWNSGALTSGVHTFPAVLQASGLYSLSSMVTVPSSRWLSDTFTCNVAHPPSNTKVDKTVRKTDHPPGPKPCDCPKCPPPEAAGAPSIFIFPPKPKDTLSISRTPEVTCLVVDLGPDDSDVQITWFVDNTQVYTAKTSPREEQFNSTYRVVSVLPILHQDWLKGKEFKCKVNSKSLPSPIERTISKAKGQPHEPQVYVLPPAQEELSRNKVSVTCLIKSFHPPDIAVEWEITGQPEPENNYRTTPPQLDSDGTYFVYSKLSVDRSHWQRGNTYTCSVSHEALHSHHTQKSLTQSPGK
light: EIQMTQSPSSLSASPGDRVTITCRASQGISIWLSWYQQKPGNIPKVLINKASNLHIGVPSRFSGSGSGTDFTLTISSLEPEDAATYYCLQSQTYPLTFGGGTKLEIKRSDAQPSVFLFQPSLDELHTGSASIVCILNDFYPKEVNVKWKVDGVVQNKGIQESTTEQNSKDSTYSLSSTLTMSSTEYQSHEKFSCEVTHKSLASTLVKSFQRSECQRE
notes: Felinized 15H05 1.1 FW2, effector-null feline heavy constant region
B3: ZTS-1505 (antibody)
heavy: B2 heavy
light: EIQMTQSPSSLSASPGDRVTITCRASQGISIWLSWYQQKPGNIPKVLINKASNLHIGVPSRFSGSGSGTDFTLTISSLEPEDAATYYCLQSQTYPLTFGGGTKLEIKRSDAQPSVFLFQPSLDELHTGSASIVCILNDFYPKEVNVKWKVDGVVQNKGIQESTTEQNSKDSTYSLSSTLTMSSTEYQSHEKFSCEVTHKSLASTLVKSFQRSEC
notes: also called ZT-1 505
B4: Feline_11E12 1.1_K46Q (antibody, V domains shown)
VH: QVLLVQSGAEVKKPGASVKIFCKASGYSFTYYDINWLRQAPEQGLEWMGWIFPGDGGTKYNETFKGRLTLTADTSTNTVYMELSSLRSADTAMYYCARGGTSVIRDAMDYWGQGALVTVSS
VL: EIQMTQSPSSLSASPGDRVTITCRASESVDNYGISFMHWYQQKPGQVPKLLIYRASNLESGVPSRFSGSGSGTDFTLTISSLEPEDAATYYCQQSNKDPLTFGQGT
B5: Feline 11E12 1.1 (antibody, V domains shown)
VH: B4 VH
VL: B4 VL with Q46K
B6: Feline 11E12 1.1 FW2 (antibody, V domains shown)
VH: B4 VH
VL: B4 VL with V47P
B7: Feline 15H05 1.1 FW1_2 (antibody, V domains shown)
VH: QVLLVQSGAEVRTPGASVKIFCKASGYSFTSYTIHWLRQAPAQGLEWMGNINPTSGYTENNQRFKDRLTLTADTSTNTAYMELSSLRSADTAMYYCARWGFKYDGEWSFDVWGAGTTVTVSS
VL: DIQMNQSPSSLSASLGDTITVTCRASQGISIWLSWYQQKPGNIPKVLINKASNLHIGVPSRFSGSGSGTDFTLTISSLEPEDAATYYCLQSQTYPLTFGGGTKLEIK
B8: Feline 15H05 2.1 (antibody, V domains shown)
VH: B7 VH with S28G, L37V, A40S
VL: B7 VL with D1E, N5T, L15P, T18R, I19V, V21I, N42K, I43V, V46L, N49Y
B9: Feline 15H05 VH2 mouse VL (antibody, V domains shown)
VH: B7 VH with S28G, L37V, A40S
VL: B7 VL with S60P, D70H, S76T, E79Q, A83I, K107N
B10: Feline 15H05 1.1 FW3 (antibody, V domains shown)
VH: B7 VH
VL: EIQMTQSPSSLSASPGDRVTITCRASQGISIWLSWYQQKPGKVPKLLIYKASNLHIGVPPRFSGSGSGTHFTLTITSLQPEDIATYYCLQSQTYPLTFGGGTKLEIK
B11: Feline 15H05 1.1 FW2_3 (antibody, V domains shown)
VH: B7 VH
VL: B10 VL with K42N, V43I, L46V, Y49N
B12: Feline 15H05 1.3 (antibody, V domains shown)
VH: B7 VH
VL: EVVLTQSSAFLSRTLKEKATITCRASQGISIWLSWYQQKPNQAPKLLVKKASNLHIGAPSRFSGSGSGTDFTLTISSPEPEDAATYYCLQSQTYPLTFGGGTKLGDQ
B13: Feline 15H05 1.1 FW1 (antibody, V domains shown)
VH: B7 VH
VL: B7 VL with N42K, I43V, V46L, N49Y
B14: Feline 15H05 1.1 FW2 (antibody, V domains shown)
VH: B7 VH
VL: B7 VL with D1E, N5T, L15P, T18R, I19V, V21I
B15: Feline 15H05 1.1 (antibody, V domains shown)
VH: B7 VH
VL: B10 VL with P60S, H70D, T76S, Q79E, I83A
B16: Feline 15H05 VH3 mouse VL (antibody, V domains shown)
VH: B7 VH with T13K, A42E
VL: B7 VL with S60P, D70H, S76T, E79Q, A83I, K107N
B17: Feline 15H05 3.1 (antibody, V domains shown)
VH: B7 VH with T13K, A42E
VL: B10 VL with P60S, H70D, T76S, Q79E, I83A
B18: Feline 15H05 3.2 (antibody, V domains shown)
VH: B7 VH with T13K, A42E
VL: EITMTQSPGSLAGSPGQQVTMNCRASQGISIWLSWYQQKPGQHPKLLIYKASNLHIGVPDRFSGSGSGTDFTLTISNLQAEDVASYYCLQSQTYPLTFGGGTKLEIK
B19: Feline 15H05 VH1 mouse VL (antibody, V domains shown)
VH: B7 VH
VL: B7 VL with S60P, D70H, S76T, E79Q, A83I, K107N
B20: Feline 15H05 2.2 (antibody, V domains shown)
VH: B7 VH with S28G, L37V, A40S
VL: B18 VL
B21: Feline 15H05 1.1 FW1_3 (antibody, V domains shown)
VH: B7 VH
VL: B10 VL with E1D, T5N, P15L, R18T, V19I, I21V
B22: Feline 15H05 1.2 (antibody, V domains shown)
VH: B7 VH
VL: B18 VL

Target: T1, canine IL-31 protein (Canine_IL31)
Assay: cell-based or functional assay

Row | Binder | Inhibition of IL-31 induced pSTAT3 IC50 (µg/ml), Canine IL-31 on Canine DH82 cells
1 | B1 | 11.2 µg/ml
2 | B2 | 23 µg/ml
3 | B3 | 21.8 µg/ml

Target: T2, canine IL-31 protein (Canine_IL31)
Assay: Biacore

Row | Binder | Kd
4 | B1 | 0.00487 nM
5 | B4 | 1.91 nM
6 | B5 | 0.764 nM
7 | B6 | 7.02 nM
8 | B7 | 0.263 nM
9 | B8 | 1.65 nM
10 | B9 | 2.22 nM
11 | B10 | 0.13 nM
12 | B11 | 214 nM
13 | B12 | 6.38 nM
14 | B13 | 813 nM
15 | B14 | 0.000431 nM
16 | B15 | 0.00504 nM
17 | B16 | 0.00264 nM
18 | B17 | 0.795 nM
19 | B18 | 0.204 nM
20 | B19 | 0.00246 nM
21 | B20 | 0.393 nM
22 | B21 | 0.00436 nM
23 | B22 | 3.48 nM

Target: T1, canine IL-31 protein (Canine_IL31)
Assay: SPR (Biacore), IL-31 protein as surface
Experimental: The affinity with which candidate mAbs bind canine and feline IL-31 was determined using surface plasmon resonance (SPR) on a Biacore system (Biocore Life Sciences (GE Healthcare), Uppsala, Sweden). To avoid affinity differences associated with differential surface preparation that can occur when immobilizing antibodies to surfaces; a strategy was employed where IL-31 was directly conjugated to the surface. Immobilization was obtained by amine coupling 5 μg/mL IL-31 using N-hydroxysuccinimide (NHS)/1-Ethyl-3-(3-dimethylaminopropyl) carbodiimide (EDC) chemistry. Chips were quenched with ethanolamine and the affinity with which all candidate mAbs bound to the immobilized IL-31 was evaluated. All curves were fit to a 1:1 model. […] Results for affinity measurements are described herein.
Table 1 below describes the results for biacore analysis using multiple species of IL-31 protein as a surface capture.

Row | Binder | Kd
24 | B1 | 0.00191 nM
25 | B2 | 0.00241 nM
26 | B3 | 0.00183 nM

Reference: US20190284272A1 (published 2019)
